T1: N-terminal domain of clathrin (human, UniProt Q00610 1-364)
T1 construct: also called CLTC NTD; CLTC-NTD
T1 sequence: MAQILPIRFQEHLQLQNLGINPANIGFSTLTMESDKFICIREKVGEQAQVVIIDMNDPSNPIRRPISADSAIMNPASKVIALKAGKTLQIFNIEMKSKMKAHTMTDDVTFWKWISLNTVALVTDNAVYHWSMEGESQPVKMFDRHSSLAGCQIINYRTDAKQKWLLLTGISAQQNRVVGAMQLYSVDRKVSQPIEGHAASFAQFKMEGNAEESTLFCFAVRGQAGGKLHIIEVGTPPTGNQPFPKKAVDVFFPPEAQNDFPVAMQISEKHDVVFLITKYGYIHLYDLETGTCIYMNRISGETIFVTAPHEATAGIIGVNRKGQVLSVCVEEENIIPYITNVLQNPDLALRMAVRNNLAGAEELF

T2: GAE domain of ADP-ribosylation factor-binding protein GGA3 (GGA3 GAE) (human, UniProt Q9NZ52 594-715)
T2 construct: also called GGA3 ear
T2 sequence (looked up): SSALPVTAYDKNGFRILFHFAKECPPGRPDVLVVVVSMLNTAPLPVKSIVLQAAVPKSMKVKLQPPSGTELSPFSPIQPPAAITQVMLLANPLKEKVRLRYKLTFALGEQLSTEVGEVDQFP

T3: Mu homology domain (MHD) of the AP-2 subunit mu (AP2M1 MHD) (human, UniProt Q96CW1 170-434)
T3 sequence (looked up): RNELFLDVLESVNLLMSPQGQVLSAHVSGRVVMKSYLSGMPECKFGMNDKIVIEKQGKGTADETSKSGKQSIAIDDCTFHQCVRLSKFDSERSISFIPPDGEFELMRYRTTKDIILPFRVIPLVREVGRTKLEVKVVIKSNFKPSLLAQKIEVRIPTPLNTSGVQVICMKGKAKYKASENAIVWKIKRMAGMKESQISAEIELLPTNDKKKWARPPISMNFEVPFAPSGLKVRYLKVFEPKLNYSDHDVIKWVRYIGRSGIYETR

B1: tumor susceptibility gene 101 protein UEV domain (TSG101 UEV) (domain or fragment)
chain: AVSESQLKKMVSKYKYRDLTVRETVNVITLYKDLKPVLDSYVFNDGSSRELMNLTGTIPVPYRGNTYNIPICLWLLDTYPYNPPICFVKPTSSMTIKTGKHVDANGKIYLPYLHEWKHPQSDLLGLIQVMIVVFGDEPPVFSRP
B2: C terminal domain of polyadenylate-binding protein 1 (PABP1 PABC) (domain or fragment)
chain: QEPLTASMLASAPPQEQKQMLGERLFPLIQAMHPTLAGKITGMLLEIDNSELLHMLESPESLRSKVDEAVAVLQAHQA
notes: also called PABPC1 PABC; PABP1 C
B3: VHS domain of ADP-ribosylation factor-binding protein GGA3 (GGA3 VHS) (domain or fragment)
chain: ATNPSNRQEDWEYIIGFCDQINKELEGPQIAVRLLAHKIQSPQEWEALQALTVLEACMKNCGRRFHNEVGKFRFLNELIKVVSPKYLGDRVSEKVKTKVIELLYSWTMALPEEAKIKDAYHMLKRQGIVQS

No end group written: not given here. *: point of attachment. FITC = O=C1OC2(c3ccc(O)cc3Oc3cc(O)ccc32)c2ccc(NC(=S)*)cc21

The first test deals with T1, N-terminal domain of clathrin. Particulars: both partners purified.
For the molecule VDGAADLIDFSVPTDE [mu-NS_(705-720) (MRV1) peptide], the binding result was “binds”.

The target in a further test is T4, C terminal domain of polyadenylate-binding protein 1 (human, UniProt P11940 544-623).
T4 construct: also called PABP1 PABC; PABC
T4 sequence (P11940 544-623): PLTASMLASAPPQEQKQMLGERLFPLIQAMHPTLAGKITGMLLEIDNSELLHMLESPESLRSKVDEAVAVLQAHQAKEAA
Particulars: both partners purified.
For the molecule HPLLNPSALEFNPSQT [N_(351-366) (HCoV 229E) peptide], the binding result is listed as “binds”.
With SAGLNPAAVPFVPKNQ [P/V/C_(183-198) (HeV) peptide], the “fold weaker affinity than PAIP2(108-123)” value turned out to be 10 fold.
On to TTGLNPTAVPFTLRNL [P/V/C_(183-198) (NiV) peptide], for which the binding result was “binds”.
On to KSNLNPNAKEFVPGVK (peptide, UniProt Q9BPZ3 108-123, looked up, also called PAIP2 peptide) [PABP-interacting protein 2 peptide PAIP2_(108-123)], for which the binding result is “binds”.

A further test addresses VP0 79-94 (HPeV5) (Human parechovirus 5 (strain CT86-6760) …). Particulars: both partners purified.
The Kd is a measure of binding affinity in units of concentration. High values mean lower affinity, low ones higher affinity. B1: binding was put at a Kd of 75 ± 0.7 µM.

The target of a further test is T2, GAE domain of ADP-ribosylation …. Particulars: both partners purified.
Molecule DPDDGSYGEYQSYSEN [NP 460-485 (ZEBOV)] gave a Kd of 10.6 ± 0.5 µM.
On the same count and under the same terms, then SSPERGWSDYTSGANN [P/V/C 130-145 (NiV)], with 48 ± 6 µM; and TSGNGDFGDWSAFNQA [CLINT1 366-381 (Human)], with 35 ± 3 µM.
Still for that read-out and setting: then SSLADDFGEFSLFGEY [SYNRG 664-679 (Human)], with 11.2 ± 0.3 µM.
Still for that read-out and setting: for {FITC}-DESDFGPLVGAD [FITC - RABEP1 435-446 (Human)] the value was 1.9 ± 0.1 µM; for NLDESDFGPLVGADSVY [RABEP1 433-448 (Human)], 1.7 ± 0.3 µM.

In the next test the target is B1. Particulars: both partners purified.
NLKLTEPTAPMIHNYM [Nsp4 127-142 (BAV)]: the affinity, expressed as Kd, was 64 ± 4 µM.
Still for that read-out and setting: for VDEEKGLYPNLKLTEPTAPMIHNYM [Nsp4 118-142 (BAV)] the value was 73 ± 2 µM; for QSIAREPSAPSIPTPAY [PDCD6IP 711-727 (Human)], 152 ± 1 µM; for {FITC}-GLIPTAPPAD [FITC - gag 453-462 (HIV2)], 3.1 ± 0.2 µM.
On the same count and under the same terms, for TPEPVVPTAPELRPSTY [MDC1 1280-1295 (Human)] the value was 28 ± 0.7 µM.
Regarding MRRVTVPTAPPAYADIGYPM [VP40 1-20 (SEBOV)], the Kd amounted to 12.2 ± 0.3 µM.

For another test, the target named is B2. The settings on record: both partners purified.
As to MSKLSVNAPEFYPSGY [PAIP1 125-140 (Human)], binding was put at a Kd of 1.58 ± 0.08 µM.
Still for that read-out and setting: for TTGLNPTAVPFTLRNLY [P/V/C 183-198 (NiV)] the value was 14.6 ± 0.8 µM; for KSNLNPNAKEFVPGVKY [PAIP2 108-123 (Human)], 0.16 ± 0.2 µM.
With SAGLNPAAVPFVPKNQY [P/V/C 183-198 (HeV)], the dissociation constant Kd is 2 ± 0.3 µM.

Another test concerns the target B3. Particulars: both partners purified.
PDDDDLWLPPPEYIPL [M 26-41 (RABV)] registered a dissociation constant (Kd) of 148 ± 8 µM.
Same read-out and setting: then YQLGEESEERDDHLLPM [M6PR 262-277 (Human)], with 21 ± 1 µM; and {FITC}-DDSDEDLLHI [FITC - IGF2R 2482-2491 (Human)], with 4.2 ± 0.4 µM; and YKLVSFHDDSDEDLLHI [IGF2R 2476-2491 (Human)], with 4.7 ± 0.2 µM.

Another test has as its target T3, Mu homology domain (MHD) of the AP-2 …. The settings on record: both partners purified.
ANEIAAYALLADDLPP [N 124-139 (MuV)] returned a Kd of 4 ± 0.1 µM.
On the same count and under the same terms, then SIEELEYQRLVTSLSK [L 177-192 (OLVV)], with 10.9 ± 0.1 µM; and NLNRVRYSKLDENGVY [Nsp4 75-90 (BAV)], with 15.9 ± 0.2 µM.
Still for that read-out and setting: then WLPPPEYVPLHEISSK [M 32-47 (WCBV)], with 12 ± 0.4 µM.
VNVGEQYQQLREAATE [NP 334-349 (ZEBOV)] had a dissociation constant Kd of 9.51 ± 0.07 µM.
EKKRGNYSRLDDRQVR [F 519-534 (HeV)] had a dissociation constant Kd of 14 ± 1 µM.

In another test the target is N 2-17 (BeV) (Berne virus (BEV)). Particulars: both partners purified.
Consider B2, for which the dissociation constant Kd is 2.7 ± 0.1 µM.

The next test has as its target P1 54-69 (SFV) (Semliki forest virus (SFV)). The settings on record: both partners purified.
B3 came in with a Kd of 82 ± 5 µM.
